Source: article PMC7735678, “Auxin response factors (ARFs) differentially regulate rice antiviral immune response against rice dwarf virus”

B1: OsWRKY13 promoter AuxRE probe (dsDNA)
DNA 1: TGGTTCGTGATTAAGGGTTTGGTTACACCGTGTCCCGCTCACGGATAGGCTGCTTAATTCTCTTT
DNA 2: AAAGAGAATTAAGCAGCCTATCCGTGAGCGGGACACGGTGTAACCAAACCCTTAATCACGAACCA
B2: OsWRKY13 AuxRE mutant probe (mCold) (dsDNA)
DNA 1: GTTACACCGAAAAAAGCTCACGGAT
DNA 2: ATCCGTGAGCTTTTTTCGGTGTAAC

Molecular target: T1, GST-OsARF12 DBD (Oryza sativa (cDNA of ZH11), UniProt Q0J951 121-247)
T1 sequence: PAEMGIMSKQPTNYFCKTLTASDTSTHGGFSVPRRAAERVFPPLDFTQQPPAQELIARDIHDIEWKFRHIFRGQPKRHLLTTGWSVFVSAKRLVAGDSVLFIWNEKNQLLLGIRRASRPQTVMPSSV
Assay: EMSA; LightShift Chemiluminescent EMSA Kit (Thermo Scientific); buffer, salt, pH and temperature not stated
Conditions: protein: recombinant, tags: GST (N-terminal, pGEX-4T-1), blunt

Binder	binding result (label: biotin)	binding result (label: biotin as probe)
B1	binds	–
B2	–	no binding
